Like-named read-outs stand apart in the source and are kept apart here.
Legend:
mouse plasma enzyme = molecular target: T1, mouse plasma enzyme (Mus musculus, UniProt P23953); type: biochemical
T1 construct: 100-200 ug of ADC were incubated in mouse plasma (provided by Bioreclamation); tissue Bioreclamation; host or cells: mouse plasma
T1 sequence (P23953 19-554): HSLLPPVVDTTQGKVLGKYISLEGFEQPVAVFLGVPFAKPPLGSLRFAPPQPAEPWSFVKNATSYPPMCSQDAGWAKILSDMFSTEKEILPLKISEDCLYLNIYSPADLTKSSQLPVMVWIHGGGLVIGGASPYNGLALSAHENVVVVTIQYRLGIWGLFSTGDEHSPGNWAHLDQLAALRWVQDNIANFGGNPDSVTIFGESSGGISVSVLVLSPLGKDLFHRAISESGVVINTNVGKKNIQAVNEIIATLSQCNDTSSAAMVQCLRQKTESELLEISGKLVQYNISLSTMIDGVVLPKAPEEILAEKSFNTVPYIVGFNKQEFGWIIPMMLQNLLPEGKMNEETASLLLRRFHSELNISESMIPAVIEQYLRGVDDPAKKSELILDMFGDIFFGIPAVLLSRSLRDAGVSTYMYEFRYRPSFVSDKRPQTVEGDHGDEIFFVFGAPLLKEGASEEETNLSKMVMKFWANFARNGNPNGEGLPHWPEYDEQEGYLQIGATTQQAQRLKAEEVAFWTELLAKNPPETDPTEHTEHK
Description: First, Balb/c serum (BioreclamationIVT) was depleted of IgG and albumin using commercially available MabSelect Protein A and Protein G resins (GE Healthcare), followed by Qproteome Murine Albumin Depletion Kit (Qiagen). The depleted serum was then subjected to sequential precipitation with ammonium sulfate. Fractions with the highest linker hydrolase activity were then applied to cation exchange HiTrap SP column (GE Healthcare) using step gradient elutions with sodium chloride. After that, SP fractions with the highest activity were applied to anion exchange HiTrap Q column (GE Healthcare) using step gradient elutions with sodium chloride. Fractions with the highest hydrolase activity were then combined and size fractionated using Superdex 200 column (GE Healthcare). […] To verify the correct identification of mouse Carboxylesterase 1C as the plasma enzyme responsible for linker cleavage, the recombinant protein was expressed in Expi 293 cells, and purified using a HIS tag following standard protocols.

[1] = In Vitro Stability Assay—Mouse Plasma; type: in vitro ADME; conditions: for DAR: before plasma incubation
[2] = Stability in SCID mouse plasma of linker-payloads conjugated to Combo_Rd4_0.6nM_C29 anti-BCMA antibody; type: in vitro ADME; conditions: LCQ05 tag

Question: Which “inhibition of the mouse plasma enzyme (linker cleavage)” value (mouse plasma enzyme) does the source give for `O=[N+]([O-])c1ccc(OP(=O)(O)Oc2ccc([N+](=O)[O-])cc2)cc1` [BNPP] here?
Answer: inhibited

Question: Which “inhibition of the mouse plasma enzyme (linker cleavage)” value (mouse plasma enzyme; 1 mM, in vitro stability assay with anti-Trop2 L11B C6 vc0101 conjugate as substrate) does the source give for `Cl.NCCc1ccc(S(=O)(=O)F)cc1` [Pefabloc] here?
Answer: inhibited

Question: What does the source list for “Ac-Lys-Val-Cit-PABC-0101 [reference compound]”?
Answer: DAR after plasma incubation for 3 to 4.5 days ([1]; attachment position H16): 1.96; Conjugate stability (%) ([1]; attachment position H16, % DAR remaining after plasma 3 or 4.5 days): 100%; DAR ([1]; attachment position H16): 1.94; DAR ([2]; Combo_Rd4_0.6nM_C29 anti-BCMA antibody, before incubation, HIC): 2.0; Conjugate stability (%) ([2]; anti-BCMA antibody, % DAR remaining after SCID mouse plasma 4.5 days): 99%; DAR after plasma incubation for 4.5 days ([2]; anti-BCMA antibody, SCID mouse plasma): 1.98

Question: Which DAR ([1]; Trop-2 antibody attachment position TG6, HIC or mass spectrometry) does the source give for “C6vc0101 [Example 10, reference compound]” here?
Answer: 1.98

Question: And the DAR ([1]; attachment position H7C)?
Answer: 1.52

Question: And the DAR ([1]; attachment position H8A)?
Answer: 1.78

Question: What about the DAR ([1]; attachment position H10) of the same compound?
Answer: 1.72

Question: And the DAR ([1]; attachment position H16)?
Answer: 2.00

Question: What about the DAR ([1]; attachment position L11B) of the same compound?
Answer: 1.88

Question: And the DAR ([1]; attachment position LCQ04)?
Answer: 1.90

Question: And the DAR ([1]; attachment position N297A)?
Answer: 1.89

Question: And the DAR ([1]; attachment position N297Q)?
Answer: 3.94

— patent publication US10967068B2, “Stability-modulating linkers for use with antibody drug conjugates” (priority 2014, dated 2021)
